According to PMC10991105:

Substrate: CCCCCCCCCCCCCCCC(=O)Oc1ccc([N+](=O)[O-])cc1
Test: p-NPP hydrolysis, Lineweaver-Burk
Format: biochemical, Thermomyces lanuginosus
Settings: free enzyme; p-NPP 0.05-0.5 mg/mL
Source text: p-NPP hydrolysis, Lineweaver-Burk on Thermomyces lanuginosus lipase (TLLs)

B1: Thermomyces lanuginosus lipase (TLLs) (Thermomyces lanuginosus) (protein)
chain: EVSQDLFNQFNLFAQYSAAAYCGKNNDAPAGTNITCTGNACPEVEKADATFLYSFEDSGVGDVTGFLALDNTNKLIVLSFRGSRSIENWIGNLNFDLKEINDICSGCRGHDGFTSSWRSVADTLRQKVEDAVREHPDYRVVFTGHSLGGALATVAGADLRGNGYDIDVFSYGAPRVGNRAFAEFLTVQTGGTLYRITHTNDIVPRLPPREFGYSHSSPEYWIKSGTLVPVTRNDIVKIEGIDATGGNNQPNIPDIPAHLWYFGLIGTCL
notes: commercial free lipase from Novozymes
B1 gave a Km of 1396 µM and a kcat of 22800 s⁻¹.
